Experimental data taken from paper PMC12871924, “Human FASTK preferentially binds single‐stranded and G‐rich RNA”.

Columns and labels:
FASTK∆N1-75 [1] = biological target: T1, FASTK∆N1-75 (Homo sapiens, UniProt Q14296 76-549, del1-75); experiment: MST; MST: 1x PBS, 5% glycerol, 1 mM DTT, Tween-20 (0.05% in RNA stock), 20 nM RNA, 22 °C; RNA annealed in 50 mM Tris/HCl pH 7.5, 50 mM KCl (or LiCl), 50 mM NaCl; EMSA: same solutions, on ice; footprinting: 1x Structure Buffer, 37 °C; conditions: protein: recombinant, tags: His6-SUMO cleaved
T1 sequence: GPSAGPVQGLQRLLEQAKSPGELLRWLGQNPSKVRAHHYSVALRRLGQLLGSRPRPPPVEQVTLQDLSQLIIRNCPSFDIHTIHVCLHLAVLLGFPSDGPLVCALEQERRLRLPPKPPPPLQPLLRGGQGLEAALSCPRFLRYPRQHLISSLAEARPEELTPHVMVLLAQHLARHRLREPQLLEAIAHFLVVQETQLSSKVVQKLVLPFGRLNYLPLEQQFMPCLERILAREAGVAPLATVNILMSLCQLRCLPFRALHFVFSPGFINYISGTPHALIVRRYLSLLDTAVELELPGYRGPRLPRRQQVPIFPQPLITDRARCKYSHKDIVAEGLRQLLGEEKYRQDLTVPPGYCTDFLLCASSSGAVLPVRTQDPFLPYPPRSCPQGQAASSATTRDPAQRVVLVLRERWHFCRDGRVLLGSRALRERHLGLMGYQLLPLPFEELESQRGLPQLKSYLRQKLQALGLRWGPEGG

FASTK∆N1-75 [2] = biological target: T1, FASTK∆N1-75; experiment: MST; same as unmutated oligo 5; MST: 1x PBS, 5% glycerol, 1 mM DTT, Tween-20 (0.05% in RNA stock), 20 nM RNA, 22 °C; RNA annealed in 50 mM Tris/HCl pH 7.5, 50 mM KCl (or LiCl), 50 mM NaCl; EMSA: same solutions, on ice; footprinting: 1x Structure Buffer, 37 °C; conditions: protein: recombinant; tags: His6-SUMO cleaved; label: Cy5 body (CTP or UTP)
FASTK∆N1-75 [3] = biological target: T1, FASTK∆N1-75; experiment: MST; same as unmutated oligo 10; MST: 1x PBS, 5% glycerol, 1 mM DTT, Tween-20 (0.05% in RNA stock), 20 nM RNA, 22 °C; RNA annealed in 50 mM Tris/HCl pH 7.5, 50 mM KCl (or LiCl), 50 mM NaCl; EMSA: same solutions, on ice; footprinting: 1x Structure Buffer, 37 °C; conditions: protein: recombinant; tags: His6-SUMO cleaved; label: Cy5 body (CTP or UTP)
FASTK∆N1-75 [4] = biological target: T1, FASTK∆N1-75; experiment: MST; 100 mM K+, no Na+; better than AU-rich mutant; MST: 1x PBS, 5% glycerol, 1 mM DTT, Tween-20 (0.05% in RNA stock), 20 nM RNA, 22 °C; RNA annealed in 50 mM Tris/HCl pH 7.5, 50 mM KCl (or LiCl), 50 mM NaCl; EMSA: same solutions, on ice; footprinting: 1x Structure Buffer, 37 °C; conditions: protein: recombinant; tags: His6-SUMO cleaved; label: Cy5
FASTK∆N1-75 [5] = biological target: T1, FASTK∆N1-75; experiment: MST; K+ annealed; MST: 1x PBS, 5% glycerol, 1 mM DTT, Tween-20 (0.05% in RNA stock), 20 nM RNA, 22 °C; RNA annealed in 50 mM Tris/HCl pH 7.5, 50 mM KCl (or LiCl), 50 mM NaCl; EMSA: same solutions, on ice; footprinting: 1x Structure Buffer, 37 °C; conditions: protein: recombinant, tags: His6-SUMO cleaved, label: Cy5
[6] = biological target: T2, FASTK∆N1-75 R249/R251 mutant (Homo sapiens, UniProt Q14296 76-549, R249A;R251A;del1-75); experiment: MST; MST: 1x PBS, 5% glycerol, 1 mM DTT, Tween-20 (0.05% in RNA stock), 20 nM RNA, 22 °C; RNA annealed in 50 mM Tris/HCl pH 7.5, 50 mM KCl (or LiCl), 50 mM NaCl; EMSA: same solutions, on ice; footprinting: 1x Structure Buffer, 37 °C; conditions: protein: recombinant; tags: His6-SUMO cleaved; label: Cy5 body (CTP or UTP); 5' 32P in footprinting; predicted G4
T2 sequence: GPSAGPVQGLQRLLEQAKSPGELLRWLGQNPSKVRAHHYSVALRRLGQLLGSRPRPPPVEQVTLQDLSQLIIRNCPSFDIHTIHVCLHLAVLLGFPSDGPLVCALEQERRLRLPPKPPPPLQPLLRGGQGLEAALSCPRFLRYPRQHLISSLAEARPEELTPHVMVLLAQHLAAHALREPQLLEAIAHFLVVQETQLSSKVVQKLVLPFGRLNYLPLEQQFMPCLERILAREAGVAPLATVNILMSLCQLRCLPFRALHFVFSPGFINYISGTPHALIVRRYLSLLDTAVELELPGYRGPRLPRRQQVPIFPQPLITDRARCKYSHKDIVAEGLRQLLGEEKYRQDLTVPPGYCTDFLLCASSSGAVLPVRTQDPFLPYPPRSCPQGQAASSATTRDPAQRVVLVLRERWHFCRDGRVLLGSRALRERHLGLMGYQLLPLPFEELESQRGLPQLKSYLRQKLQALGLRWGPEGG

For GGGUCUGUGGGGUC (ssRNA) [G-rich short RNA (internal loop strand 2)], the Kd (FASTK∆N1-75 [1]; label: Cy5) was 2.7 nM.

AAAUCUGUAAAAUC (ssRNA) [A-rich short RNA] gave a Kd (FASTK∆N1-75 [1]; label: Cy5) of 78.4 nM.

B1: ND6 oligo 5 G4kill mutant (ssRNA)
RNA: GAGUGGUCAGAGUUGAUUCGUGAGGAUCCUAUUGGUGCGGAGGCUUUGUAUGAUUAUGUGCGUUGAUUAGUAGUAGUUACUGGUUGAACAUUGUUUGUUGGUGUAUAUAUUGUAAUUGAGAUUGC
B1: binds (FASTK∆N1-75 [2]).

B2: ND6 oligo 10 G4kill mutant (ssRNA)
RNA: GGAGGAUUGUUGUUUGGAAGGUGGAUGCGGAGGAAAUGUUGUUAGUAAUGAGAAAUCCUGCGAAUAGGCUUCCGG
B2: binds (FASTK∆N1-75 [3]).

For UUUUCUGUUUUUUC (ssRNA) [U-rich short RNA], the Kd (FASTK∆N1-75 [1]; label: Cy5) was 63.2 nM.

UUACCCUUACCCUUACCCUUACCC (ssRNA) [TERRA C-rich mutant]: binds (FASTK∆N1-75 [4]).

With CCCUCUGUCCCCUC (ssRNA) [C-rich short RNA] the Kd (FASTK∆N1-75 [1]; label: Cy5) was 212 nM.

With UUAGGGUUAGGGUUAGGGUUAGGG (structured_RNA) [TERRA] the Kd (FASTK∆N1-75 [5]; G4 intramolecular in K+) was 2.4 nM.

UUAGAGUUAGUGUUAGAGUUAGUG (ssRNA) [TERRA AU-rich mutant] was tested, and the Kd (FASTK∆N1-75 [5]) was 6.4 nM.

B3: ND6 oligo 5 (structured_RNA)
RNA: GAGGGGUCAGGGUUGAUUCGGGAGGAUCCUAUUGGUGCGGGGGCUUUGUAUGAUUAUGGGCGUUGAUUAGUAGUAGUUACUGGUUGAACAUUGUUUGUUGGUGUAUAUAUUGUAAUUGAGAUUGC
With B3 the Kd (FASTK∆N1-75 [1]; label: Cy5 body (CTP or UTP), 5' 32P in footprinting, predicted G4) was 25.5 nM and the binding signal [6] was 5 fold decrease vs wild type.

B4: ND6 oligo 10 (structured_RNA)
RNA: GGGGGAUUGUUGUUUGGAAGGGGGAUGCGGGGGAAAUGUUGUUAGUAAUGAGAAAUCCUGCGAAUAGGCUUCCGG
For B4, the Kd (FASTK∆N1-75 [1]; label: Cy5 body (CTP or UTP), predicted G4) was 18.5 nM.
